From patent publication US20260184782A1 (TWIST BIOSCIENCE, published 2026)
Positions count from the first letter of the chain named.

T1: recombinant human TIGIT (human, UniProt Q495A1 22-141, limits assumed)
T1 construct: recombinant human TIGIT used in Carterra SPR; also called hTIGIT
T1 sequence (looked up): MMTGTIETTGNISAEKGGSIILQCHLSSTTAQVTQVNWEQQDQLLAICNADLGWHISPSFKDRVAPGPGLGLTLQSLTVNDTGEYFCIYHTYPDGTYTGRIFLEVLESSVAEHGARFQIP

B1: TIGIT-SC107 (Fc fusion)
VHH: EVQLVESGGGLVQPGGSLRLSCAASGFAFSSDWMGWFRQAPGKEREGVAWIARYDGSTLYADSVKGRFTISADNSKNTAYLQMNSLKPEDTAVYYCAKDLDSSGRFFQHWGQGTLVTVSS
notes: VHH-Fc fusion in assay
B2: TIGIT-SC160 (Fc fusion)
VHH: EVQLVESGGGLVQPGGSLRLSCAASGNTFSGGFMGWFRQAPGKEREWVASVLRGGYTWYADSVKGRFTISADNSKNTAYLQMNSLKPEDTAVYYCAREGRSSSPWFDPWGQGTLVTVSS
notes: VHH-Fc fusion in assay
B3: TIGIT-SC114 (Fc fusion)
VHH: B2 VHH with R97T, E98V, R100G, S101R, S102Q, S103R, P104T, W105L, P108D
notes: VHH-Fc fusion in assay
B4: TIGIT-SC155 (Fc fusion)
VHH: B2 VHH with R97G, E98D, G99Y, S101G, S102F, S103E, P104M, W105A
notes: VHH-Fc fusion in assay
B5: TIGIT-SC6 (Fc fusion)
VHH: B2 VHH with R97I, E98S, G99P, R100V, S101A, S102W, S103H, P104A, W105K, P108S
notes: VHH-Fc fusion in assay
B6: TIGIT-SC110 (Fc fusion)
VHH: B2 VHH with E98D, G99H, R100T, S101A, S102M, S103V, P104A, W105P, P108Y
notes: VHH-Fc fusion in assay
B7: TIGIT-SC158 (Fc fusion)
VHH: B2 VHH with N27F, G31P, G32S, F33W
notes: VHH-Fc fusion in assay
B8: TIGIT-SC159 (Fc fusion)
VHH: B2 VHH with N27F, S30D, G31R, G32S, F33W
notes: VHH-Fc fusion in assay
B9: TIGIT-SC108 (Fc fusion)
VHH: EVQLVESGGGLVQPGGSLRLSCAASGNTFSGGFMGWFRQAPGKEREWVASVLRGGYTWYADSVKGRFTISADNSKNTAYLQMNSLKPEDTAVYYCANGGRVWWAFDYWGQGTLVTVSS
notes: VHH-Fc fusion in assay
B10: TIGIT-SC21 (Fc fusion)
VHH: B9 VHH with N97R, R100A, V101G, W102S, W103D, A104W, D106G, Y107P
notes: VHH-Fc fusion in assay
B11: TIGIT-SC10 (Fc fusion)
VHH: B9 VHH with N97S, G98D, G99P, R100W, V101G, W102T, W103R, A104Y, Y107H
notes: VHH-Fc fusion in assay
B12: TIGIT-SC175 (Fc fusion)
VHH: EVQLVESGGGLVQPGGSLRLSCAASGNTFSGGFMGWFRQAPGKEREWVASVLRGGYTWYADSVKGRFTISADNSKNTAYLQMNSLKPEDTAVYYCTTDALRFLEWPWWGQGTLVTVSS
notes: VHH-Fc fusion in assay
B13: TIGIT-SC197 (Fc fusion)
VHH: EVQLVESGGGLVQPGGSLRLSCAASGFTFDRSWMGWFRQAPGKEREWVASVLRGGYTWYADSVKGRFTISADNSKNTAYLQMNSLKPEDTAVYYCAREGRTAGWFDPWGQGTLVTVSS
notes: VHH-Fc fusion in assay
B14: TIGIT-SC61 (Fc fusion)
VHH: B9 VHH with A96T, N97R, G99D, R100T, V101A, W102M, W103A, A104T
notes: VHH-Fc fusion in assay
B15: TIGIT-SC58 (Fc fusion)
VHH: EVQLVESGGGLVQPGGSLRLSCAASGFTLGYYVMGWFRQAPGKEREFVATINWSGTLTSYADSVKGRFTISADNSKNTAYLQMNSLKPEDTAVYYCARWVGPKYYFDYWGQGTLVTVSS
notes: VHH-Fc fusion in assay
B16: TIGIT-SC63 (Fc fusion)
VHH: EVQLVESGGGLVQPGGSLRLSCAASGRAIGSYGMGWFRQAPGKEREFVATISVSGVYTYYADSVKGRFTISADNSKNTAYLQMNSLKPEDTAVYYCARATPGGVVPWGQGTLVTVSS
notes: VHH-Fc fusion in assay
B17: TIGIT-SC34 (Fc fusion)
VHH: EVQLVESGGGLVQPGGSLRLSCAASGTTFSPYTMGWFRQAPGKEREFVASINSGSRTNYADSVKGRFTISADNSKNTAYLQMNSLKPEDTAVYYCVRSEIGWGQGTLVTVSS
notes: VHH-Fc fusion in assay
B18: TIGIT-SC47 (Fc fusion)
VHH: EVQLVESGGGLVQPGGSLRLSCAASGRALNMYVMGWFRQAPGKERELVAAIDWSGGSALYADSVKGRFTISADNSKNTAYLQMNSLKPEDTAVYYCASGDGYSMDYFDPWGQGTLVTVSS
notes: VHH-Fc fusion in assay
B19: TIGIT-SC1 (Fc fusion)
VHH: EVQLVESGGGLVQPGGSLRLSCAASGFTLNDYAMGWFRQAPGKERELVAWIARYDGSTLYADSVKGRFTISADNSKNTAYLQMNSLKPEDTAVYYCARVDWALNAAPFDYWGQGTLVTVSS
notes: VHH-Fc fusion in assay
B20: TIGIT-SC78 (Fc fusion)
VHH: B19 VHH with F27L
notes: VHH-Fc fusion in assay
B21: TIGIT-SC14 (Fc fusion)
VHH: EVQLVESGGGLVQPGGSLRLSCAASGSISSIHAMGWFRQAPGKEREFVATISRSGVGTFYADSVKGRFTISADNSKNTAYLQMNSLKPEDTAVYYCASSYSSSSGLGDIWGQGTLVTVSS
notes: VHH-Fc fusion in assay
B22: TIGIT-SC3 (Fc fusion)
VHH: EVQLVESGGGLVQPGGSLRLSCAASGTFQRINAMGWFRQAPGKEREFVSTINWSGSNTYYADSVKGRFTISADNSKNTAYLQMNSLKPEDTAVYYCASSYSSSSGLGDIWGQGTLVTVSS
notes: VHH-Fc fusion in assay
B23: TIGIT-SC77 (Fc fusion)
VHH: EVQLVESGGGLVQPGGSLRLSCAASGGAFSTVAMGWFRQAPGKEREAVASIWRSGDSTYYADSVKGRFTISADNSKNTAYLQMNSLKPEDTAVYYCASSYSSSSGLGDIWGQGTLVTVSS
notes: VHH-Fc fusion in assay
B24: TIGIT-SC97 (Fc fusion)
VHH: EVQLVESGGGLVQPGGSLRLSCAASGTAASFNPMGWFRQAPGKEREFVAAISWSGGSTNYADSVKGRFTISADNSKNTAYLQMNSLKPEDTAVYYCVTYSAYDFRNAWGQGTLVTVSS
notes: VHH-Fc fusion in assay
B25: TIGIT-SC95 (Fc fusion)
VHH: EVQLVESGGGLVQPGGSLRLSCAASGPTFSTNVMGWFRQAPGKEREFVSSIHWGGSSTVYADSVKGRFTISADNSKNTAYLQMNSLKPEDTAVYYCVTYSAYDFRNAWGQGTLVTVSS
notes: VHH-Fc fusion in assay
B26: TIGIT-SC19 (Fc fusion)
VHH: EVQLVESGGGLVQPGGSLRLSCAASGRTYDAMGWFRQAPGKEREWVASVLRGGYTWYADSVKGRFTISADNSKNTAYLQMNSLKPEDTAVYYCARDVDYRFDSWGQGTLVTVSS
notes: VHH-Fc fusion in assay
B27: TIGIT-SC113 (Fc fusion)
VHH: EVQLVESGGGLVQPGGSLRLSCAASGFTLNDYAMGWFRQAPGKERELVAWIARYDGSTLYADSVKGRFTISADNSKNTAYLQMNSLKPEDTAVYYCTWGDGYNLGAFDIWGQGTLVTVSS
notes: VHH-Fc fusion in assay
B28: TIGIT-SC112 (Fc fusion)
VHH: B27 VHH with F27R, N30R, D31R, A33V, W50A, A52D, R53W, Y54S, D55G, T58A
notes: VHH-Fc fusion in assay
B29: TIGIT-SC134 (Fc fusion)
VHH: EVQLVESGGGLVQPGGSLRLSCAASGFTLENNMMGWFRQAPGKEREFVAAISASGTLRAYADSVKGRFTISADNSKNTAYLQMNSLKPEDTAVYYCARWYRVNNWSPGYYYYMDVWGQGTLVTVSS
notes: VHH-Fc fusion in assay
B30: TIGIT-SC38 (Fc fusion)
VHH: EVQLVESGGGLVQPGGSLRLSCAASGFTFSEYPMGWFRQAPGKEREFVAVVNWNGDSTYYADSVKGRFTISADNSKNTAYLQMNSLKPEDTAVYYCARGSDWYRYWGQGTLVTVSS
notes: VHH-Fc fusion in assay
B31: TIGIT-SC48 (Fc fusion)
VHH: EVQLVESGGGLVQPGGSLRLSCAASGRTSDIYGMGWFRQAPGKEREAVASIWRSGGNTYYADSVKGRFTISADNSKNTAYLQMNSLKPEDTAVYYCASSTLDVWGQGTLVTVSS
notes: VHH-Fc fusion in assay
B32: TIGIT-SC170 (Fc fusion)
VHH: EVQLVESGGGLVQPGGSLRLSCAASGHTFSPSWMGWFRQAPGKEREWVASVLRGGYTWYADSVKGRFTISADNSKNTAYLQMNSLKPEDTAVYYCTTELRWELQQPDYWGQGTLVTVSS
notes: VHH-Fc fusion in assay
B33: TIGIT-SC39 (Fc fusion)
VHH: EVQLVESGGGLVQPGGSLRLSCAASGRTVSSHAMGWFRQAPGKEREFVAAITSSGSTYYADSVKGRFTISADNSKNTAYLQMNSLKPEDTAVYYCASSYSSSSGLGDIWGQGTLVTVSS
notes: VHH-Fc fusion in assay

Molecular target: T1, recombinant human TIGIT
Test: SPR Carterra, average
Experimental: Binding affinities of VHH-Fc proteins to recombinant human TIGIT were measured by SPR using a Carterra instrument (Table 10A). […] Average values reported from measurements from 1-2 samples.

Kd | koff | kon | Binder
0.693 nM | 0.000148 s⁻¹ | 213000 M⁻¹ s⁻¹ | B1
31.6 nM | 0.00265 s⁻¹ | 105000 M⁻¹ s⁻¹ | B2
45.2 nM | 0.00227 s⁻¹ | 50700 M⁻¹ s⁻¹ | B3
126 nM | 0.00647 s⁻¹ | 51300 M⁻¹ s⁻¹ | B4
19.4 nM | 0.00129 s⁻¹ | 66700 M⁻¹ s⁻¹ | B5
1.44 nM | 0.000765 s⁻¹ | 531000 M⁻¹ s⁻¹ | B6
143 nM | 0.00154 s⁻¹ | 18200 M⁻¹ s⁻¹ | B7
14.6 nM | 0.00144 s⁻¹ | 92000 M⁻¹ s⁻¹ | B8
8.9 nM | 0.00181 s⁻¹ | 203000 M⁻¹ s⁻¹ | B9
7.57 nM | 0.000578 s⁻¹ | 86600 M⁻¹ s⁻¹ | B10
0.328 nM | 0.0002 s⁻¹ | 566000 M⁻¹ s⁻¹ | B11
14.4 nM | 0.00124 s⁻¹ | 101000 M⁻¹ s⁻¹ | B12
9.35 nM | 0.00156 s⁻¹ | 168000 M⁻¹ s⁻¹ | B13
59.2 nM | 0.0037 s⁻¹ | 63000 M⁻¹ s⁻¹ | B14
≤ 0.0118 nM | ≤ 1e-05 s⁻¹ | 860000 M⁻¹ s⁻¹ | B15
≤ 0.156 nM | ≤ 1e-05 s⁻¹ | 64300 M⁻¹ s⁻¹ | B16
≤ 0.0105 nM | ≤ 1e-05 s⁻¹ | 1.31e+06 M⁻¹ s⁻¹ | B17

Kd | koff | kon | Binder
≤ 0.204 nM | ≤ 1e-05 s⁻¹ | 48900 M⁻¹ s⁻¹ | B18
0.467 nM | 0.000165 s⁻¹ | 246000 M⁻¹ s⁻¹ | B19
2.02 nM | 0.000493 s⁻¹ | 244000 M⁻¹ s⁻¹ | B20
≤ 0.00513 nM | ≤ 1e-05 s⁻¹ | 1.95e+06 M⁻¹ s⁻¹ | B21
≤ 0.00502 nM | ≤ 1e-05 s⁻¹ | 4.71e+06 M⁻¹ s⁻¹ | B22
2.07 nM | 0.000837 s⁻¹ | 1.17e+06 M⁻¹ s⁻¹ | B23
0.447 nM | 0.000231 s⁻¹ | 942000 M⁻¹ s⁻¹ | B24
2.55 nM | 0.00352 s⁻¹ | 1.38e+06 M⁻¹ s⁻¹ | B25
1.07 nM | 0.0012 s⁻¹ | 1.12e+06 M⁻¹ s⁻¹ | B26
1.88 nM | 0.000483 s⁻¹ | 257000 M⁻¹ s⁻¹ | B27
13.2 nM | 0.00393 s⁻¹ | 297000 M⁻¹ s⁻¹ | B28
1.47 nM | 8.98e-05 s⁻¹ | 60900 M⁻¹ s⁻¹ | B29
0.505 nM | 0.000237 s⁻¹ | 469000 M⁻¹ s⁻¹ | B30
0.713 nM | 0.00551 s⁻¹ | 7.72e+06 M⁻¹ s⁻¹ | B31
≤ 0.222 nM | ≤ 1e-05 s⁻¹ | 45000 M⁻¹ s⁻¹ | B32
≤ 0.0423 nM | ≤ 1e-05 s⁻¹ | 342000 M⁻¹ s⁻¹ | B33
